Key:
[1] = tested on: fracture-healing in rabbits; details: no distraction; cited from earlier work
[2] = tested on: distracted tibia (callus distraction) of Yucatan mini-pigs; assay: Mechanical torsion testing of distracted tibia after callus distraction in GH-treated mini-pigs; format: in vivo, Yucatan mini-pig; details: at sacrifice
Experimental: After sacrifice, the right and left limb were dissected. The soft tissue around the joints was removed, and the ends of the tibia were casted in Beracryl. The constructs were placed in a materials testing machine (Zwick, Ulm, Germany), and torsional moments were applied. Resulting displacements and torsional moments were recorded. The test was conducted with a speed of 30° per minute until failure. The system automatically terminated the test at a torque of 20%.
The final bone torsional strength of a mini-pig group treated with growth hormone was investigated relative to a control group.
30 mature female Yucatan mini-pigs were equally distributed into two treatment groups. Mini-pigs in the study group received a daily injection of recombinant porcine growth hormone (r-pGH: 100 μg/kg), the mini-pigs in the control group received sodium chloride as placebo. The left tibiae and fibulae were osteotomized and stabilized with an external fixator. Full weight bearing was permitted. The legs were distracted twice daily at 2 mm/day for 10 days and then allowed to consolidate for 10 days. After sacrifice, torsional moments were applied to the distracted and the contralateral tibia in a material testing machine and the maximum torsional moment was determined. Four animals were removed from the study due to bone infection or surgery failure and data of 2 animals were lost due to test machine failure. A t-test was used to determine differences in maximum torsional moments between the treatment groups.

healing fracture in dogs = details: compared to non-treated dogs; cited from earlier work

growth hormone
effect on fracture-healing [1]: no effect

B1: GH: recombinant porcine growth hormone (r-pGH), homologous GH injected daily at 100 μg/kg in mini-pigs (protein, UniProt P01248 27-216, looked up)
Somatotropin: FPAMPLSSLFANAVLRAQHLHQLAADTYKEFERAYIPEGQRYSIQNAQAAFCFSETIPAPTGKDEAQQRSDVELLRFSLLLIQSWLGPVQFLSRVFTNSLVFGTSDRVYEKLKDLEEGIQALMRELEDGSPRAGQILKQTYDKFDTNLRSDDALLKNYGLLSCFKKDLHKAETYLRVMKCRRFVESSCAF
maximum torsional moment of distracted tibia ([2]; r-pGH 100 μg/kg daily injection, distraction 2 mm/day for 10 days, consolidation 10 days, p=0.001 vs placebo): 19.5±7.8 Nm | maximum torsional moment in comparison to the intact contralateral tibia ([2]; r-pGH 100 μg/kg daily, p<0.001 vs control): 64±22.4% | higher maximum torsional moment than placebo group ([2]; r-pGH 100 μg/kg daily, versus placebo group): 131%

B2: cST: canine somatotropin given to dogs in the study of Buonomo et al. (protein, UniProt P33711 27-216, looked up)
Somatotropin: B1 Somatotropin
increase of stiffness of the healing fracture (healing fracture in dogs): 5 fold | increase of strength of the healing fracture (healing fracture in dogs): 3 fold
